Legend:
[1] = substrate: CC1(CN)CCN(c2cnc(Sc3cccc(Cl)c3Cl)c(N)n2)CC1; settings: Homo sapiens; filed as negative allosteric modulator; dose 0.032 µM
Description: Non-competitive inhibition of wild-type human SHP2 (1 to 535 residues) using DiFMUP as substrate assessed as Km at 0.032 uM measured by Lineweaver-Burk plot analysis

[2] = substrate: CC1(CN)CCN(c2cnc(Sc3cccc(Cl)c3Cl)c(N)n2)CC1; settings: Homo sapiens; filed as negative allosteric modulator; dose 0.08 µM
Description: Non-competitive inhibition of wild-type human SHP2 (1 to 535 residues) using DiFMUP as substrate assessed as Km at 0.08 uM measured by Lineweaver-Burk plot analysis

[3] = substrate: CC1(CN)CCN(c2cnc(Sc3cccc(Cl)c3Cl)c(N)n2)CC1; settings: Homo sapiens; filed as negative allosteric modulator; dose 0.2 µM

B1: Tyrosine-protein phosphatase non-receptor type 11 (Homo sapiens), Q06124 (protein)
chain: MTSRRWFHPNITGVEAENLLLTRGVDGSFLARPSKSNPGDFTLSVRRNGAVTHIKIQNTGDYYDLYGGEKFATLAELVQYYMEHHGQLKEKNGDVIELKYPLNCADPTSERWFHGHLSGKEAEKLLTEKGKHGSFLVRESQSHPGDFVLSVRTGDDKGESNDGKSKVTHVMIRCQELKYDVGGGERFDSLTDLVEHYKKNPMVETLGTVLQLKQPLNTTRINAAEIESRVRELSKLAETTDKVKQGFWEEFETLQQQECKLLYSRKEGQRQENKNKNRYKNILPFDHTRVVLHDGDPNEPVSDYINANIIMPEFETKCNNSKPKKSYIATQGCLQNTVNDFWRMVFQENSRVIVMTTKEVERGKSKCVKYWPDEYALKEYGVMRVRNVKESAAHDYTLRELKLSKVGQGNTERTVWQYHFRTWPDHGVPSDPGGVLDFLEEVHHKQESIMDAGPVVVHCSAGIGRTGTFIVIDILIDIIREKGVDCDIDVPKTIQMVRSQRSGMVQTEAQYRFIYMAVQHYIETLQRRIEEEQKSKRKGHEYTNIKYSLADQTSGDQSPLPPCTPTPPCAEMREDSARVYENVGLMQQQKSFR
[1]
  Km: 95.4 µM
[2]
  Km: 103 µM
[3]
  Km: 142 µM
